Patent US20240241135A1 (SENBOLL BIOTECHNOLOGY, published 2024)

T1: recombinant human regenerating islet-derived protein 1α (REG1A) (human, UniProt P05451 23-166, limits assumed)
T1 construct: also called recombinant human REG1A; recombinant REG1A
T1 sequence (looked up): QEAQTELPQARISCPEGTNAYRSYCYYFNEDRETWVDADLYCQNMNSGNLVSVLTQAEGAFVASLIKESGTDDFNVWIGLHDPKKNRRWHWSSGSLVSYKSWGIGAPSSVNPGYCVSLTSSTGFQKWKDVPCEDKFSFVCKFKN

B1: antibody 11D11B11 (antibody, mouse IgG2a, kappa, V domains shown)
VH: DVKLVESGGGLVKPGGSLKLSCAASGFTFSSFSMSWFRQTPDKRLEWVATISSGGSSTYYPDSVKGRFTISRDNAKNTLYLQMTSLKSEDTAIFYCRGGYYGNYDPLDYWGQGTSVTVSA
VL: DIVMIQSQKFMSTSVGDRVSITCTASHNVDSNVAWYQQKPGQSPQALIYSASYRYSGVPDRFTGSGSGTDFTLTINNVQSEDLAEYFCQQYNSYPLTFGGGTRLEIKR
notes: Mouse monoclonal from hybridoma, stated mouse IgG1/Kappa; Used unlabelled as capture and biotin-labelled as detection antibody; also called 11D11B11-biotin
B2: antibody 4H8F1 (antibody, V domains shown)
VH: QVTLKESGPGILQPSQTLSLTCSFSGFSLSTSGMSVGWIRQPSGKGLEWLAHIWWNDDKFYNPALKSRLTISKDTSKNQIFLKIASVVTADSATYYCARIEEGWFAYWGQGTLVTVST
VL: SIVMTQTPKFLLVSVGDRVTITCKASQTMSNDVAWYQQKPGQSPKLLIYYASNRYTGVPDRFTGSGYGTDFTFTISTVQAEDLAVYFCQQDYSSPLTFGAGTKLELKR
notes: Mouse monoclonal from hybridoma, stated mouse IgG1/Kappa; also called 4H8F1-biotin; Antibody 1

Legend:
[1] = biological target: T1, recombinant human regenerating …; test: sandwich ELISA; capture 21B11D2; REG1A 100.00 ng/mL
How it was run: (§1)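 Plates were coated overnight at 4 °C with the capture monoclonal antibody in PBS and blocked for 2 h at 37 °C, after which recombinant human REG1A in basic diluent (100 μL per well) was incubated for 1 h at 37 °C. Bound protein was detected with a horseradish peroxidase-based detection antibody system and TMB substrate for 15 min at 37 °C, and 0.2M sulfuric acid stopped the reaction. The OD value from this sandwich ELISA is a background-corrected absorbance. The reading at 620/630 nm was subtracted from the reading at 450 nm.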

[2] = biological target: T1, recombinant human regenerating …; test: sandwich ELISA; capture 25F3C4; REG1A 1.23 ng/mL
How it was run: as §1

[3] = biological target: T1, recombinant human regenerating …; test: sandwich ELISA; capture 11D11B11; REG1A 3.70 ng/mL
How it was run: as §1

[4] = biological target: T1, recombinant human regenerating …; test: sandwich ELISA; capture 12F12A10; REG1A 1.23 ng/mL
How it was run: as §1

[5] = biological target: T1, recombinant human regenerating …; test: sandwich ELISA; capture 12F12A10; REG1A 33.33 ng/mL
How it was run: as §1

[6] = biological target: T1, recombinant human regenerating …; test: sandwich ELISA; capture 4H8F1; REG1A 11.11 ng/mL
How it was run: as §1

[7] = biological target: T1, recombinant human regenerating …; test: sandwich ELISA; capture 21B11D2; REG1A 1.23 ng/mL
How it was run: as §1

[8] = biological target: T1, recombinant human regenerating …; test: sandwich ELISA; capture 4H8F1; REG1A 3.70 ng/mL
How it was run: as §1

[9] = biological target: T1, recombinant human regenerating …; test: sandwich ELISA; capture 12F12A10; REG1A 3.70 ng/mL
How it was run: as §1

[10] = biological target: T1, recombinant human regenerating …; test: sandwich ELISA; capture 21B11D2; REG1A 3.70 ng/mL
How it was run: as §1

[11] = biological target: T1, recombinant human regenerating …; test: sandwich ELISA; capture 4H8F1; REG1A 33.33 ng/mL
How it was run: as §1

[12] = biological target: T1, recombinant human regenerating …; test: sandwich ELISA; capture 11D11B11; REG1A 1.23 ng/mL
How it was run: as §1

[13] = biological target: T1, recombinant human regenerating …; test: sandwich ELISA; capture 25F3C4; REG1A 11.11 ng/mL
How it was run: as §1

[14] = biological target: T1, recombinant human regenerating …; test: sandwich ELISA; capture 21B11D2; REG1A 33.33 ng/mL
How it was run: as §1

[15] = biological target: T1, recombinant human regenerating …; test: sandwich ELISA; capture 12F12A10; REG1A 100.00 ng/mL
How it was run: as §1

[16] = biological target: T1, recombinant human regenerating …; test: sandwich ELISA; capture 21B11D2; REG1A 0 ng/mL (blank)
How it was run: as §1

[17] = biological target: T1, recombinant human regenerating …; test: sandwich ELISA; capture 25F3C4; REG1A 100.00 ng/mL
How it was run: as §1

[18] = biological target: T1, recombinant human regenerating …; test: sandwich ELISA; capture 11D11B11; REG1A 100.00 ng/mL
How it was run: as §1

[19] = biological target: T1, recombinant human regenerating …; test: sandwich ELISA; capture 12F12A10; REG1A 0 ng/mL (blank)
How it was run: as §1

[20] = biological target: T1, recombinant human regenerating …; test: sandwich ELISA; capture 11D11B11; REG1A 33.33 ng/mL
How it was run: as §1

[21] = biological target: T1, recombinant human regenerating …; test: sandwich ELISA; capture 11D11B11; REG1A 0 ng/mL (blank)
How it was run: as §1

[22] = biological target: T1, recombinant human regenerating …; test: sandwich ELISA; capture 25F3C4; REG1A 3.70 ng/mL
How it was run: as §1

[23] = biological target: T1, recombinant human regenerating …; test: sandwich ELISA; capture 21B11D2; REG1A 11.11 ng/mL
How it was run: as §1

[24] = biological target: T1, recombinant human regenerating …; test: sandwich ELISA; capture 4H8F1; REG1A 100.00 ng/mL
How it was run: as §1

[25] = biological target: T1, recombinant human regenerating …; test: sandwich ELISA; capture 25F3C4; REG1A 0 ng/mL (blank)
How it was run: as §1

[26] = biological target: T1, recombinant human regenerating …; test: sandwich ELISA; capture 25F3C4; REG1A 33.33 ng/mL
How it was run: as §1

[27] = biological target: T1, recombinant human regenerating …; test: sandwich ELISA; capture 12F12A10; REG1A 11.11 ng/mL
How it was run: as §1

[28] = biological target: T1, recombinant human regenerating …; test: sandwich ELISA; capture 11D11B11; REG1A 11.11 ng/mL
How it was run: as §1

[29] = biological target: T1, recombinant human regenerating …; test: sandwich ELISA; capture 4H8F1; REG1A 0 ng/mL (blank)
How it was run: as §1

[30] = biological target: T1, recombinant human regenerating …; test: sandwich ELISA; capture 4H8F1; REG1A 1.23 ng/mL
How it was run: as §1

| Binder | OD value [1] | OD value [2] | OD value [3] | OD value [4] | OD value [5] | OD value [6] | OD value [7] | OD value [8] | OD value [9] | OD value [10] | OD value [11] | OD value [12] | OD value [13] | OD value [14] | OD value [15] | OD value [16] | OD value [17] | OD value [18] | OD value [19] | OD value [20] | other results |
| --- | --- | --- | --- | --- | --- | --- | --- | --- | --- | --- | --- | --- | --- | --- | --- | --- | --- | --- | --- | --- | --- |
| B1 | 0.075 OD | 0.071 OD | 0.066 OD | 0.934 OD | 3.03 OD | 4.1 OD | 0.089 OD | 3.74 OD | 1.54 OD | 0.069 OD | 4.22 OD | 0.066 OD | 0.079 OD | 0.077 OD | 3.15 OD | 0.074 OD | 0.089 OD | 0.064 OD | 0.075 OD | 0.064 OD | OD value [21]: 0.079 OD; OD value [22]: 0.076 OD; OD value [23]: 0.077 OD; OD value [24]: 4.24 OD; OD value [25]: 0.074 OD; OD value [26]: 0.083 OD; OD value [27]: 2.69 OD; OD value [28]: 0.072 OD; OD value [29]: 0.21 OD; OD value [30]: 2.46 OD |
| B2 | 0.084 OD | 0.087 OD | 2.87 OD | 1.3 OD | 3.27 OD | 0.081 OD | 0.078 OD | 0.079 OD | 2.42 OD | 0.077 OD | 0.081 OD | 1.37 OD | 0.078 OD | 0.078 OD | 3.18 OD | 0.075 OD | 0.086 OD | 4.24 OD | 0.068 OD | 4.48 OD | OD value [21]: 1.21 OD; OD value [22]: 0.082 OD; OD value [23]: 0.073 OD; OD value [24]: 0.09 OD; OD value [25]: 0.076 OD; OD value [26]: 0.085 OD; OD value [27]: 3.05 OD; OD value [28]: 3.87 OD; OD value [29]: 0.074 OD; OD value [30]: 0.074 OD |
